What was measured:
K. pneumoniae [1] = experiment: Sigma 54 TFD growth assay, cell penetrating peptide transfection; type: cell-based, Klebsiella pneumoniae; details: 10 nM TFD; M9 media; complexed with cell penetrating peptide
Description: Growth assays were performed as described in Section 4.1 with the difference being that the media used was M9 media (Sambrook et al (1989) Molecular Cloning. 2nd Edition vol. 3 p.A3). The media was not supplemented with any co-transfectant.
Transfection was achieved by complexing the TFD with a cell penetrating peptide. The peptide consisted of two portions: a linear chain of nine D-arginines and a previously described peptide sequence found to be capable of penetrating the membrane of K. pneumoniae (Vaara, Antimicrobial Agents and Chemotherapy (1996) 40:1801). The positively charged arginines (R9) serve to bind the phosphate backbone of the TFD through a charge interaction. The use of such R9 tails to complex transfecting moieties to transfect bacteria has been described previously (Kim, Molecular Therapy (2006) 14:343). The entire sequence of the peptide used was:
TFDs were mixed with increasing amounts of IKFLKFLKKL-R9 peptide in a TE based buffer supplemented with 5% glucose. The mixture was incubated at room temperature for 1 hour and then either used directly in transfections or analysed by agarose gel electrophoresis. Typically the minimum amount of IKFLKFLKKL-R9 was used that caused the complex with DNA not to run in the gel; i.e. the charge of the nucleic acid backbone had been neutralised by binding of poly-arginine. […]

K. pneumoniae [2] = experiment: KP_Sig TFD growth assay in vitro; type: cell-based, Klebsiella pneumoniae; details: PCR_TFD, transfected using a cell penetrating peptide
Source text: Cells were transfected as described in Example 13, using a cell penetrating peptide. […] The two controls used were: untreated cells (K. pneumoniae) and a control TFD consisting of a scrambled sequence.

[3] = tested on: methicillin-resistant strains (MRSA); experiment: Sig TFD growth assay on MRSA clinical isolates; type: cell-based, Staphylococcus aureus; details: 10 nM TFD; DOTAP, 60 nM Gramicidin
Description: Cholesterol/Cy5-labeled decoy polynucleotides were prepared as in Example 5.1. Typically 1 μg of Sig TFD was then complexed with 0.3 μl of the liposomal transfection reagent DOTAP (1,2-dioleoyl-3-trimethylammonium propane; Roche) and incubated at room temperature for 10 min. The assays to determine their effect on growth of bacterial cells were performed using 96 well plates, each well containing 200 μl of broth consisting of BHI media (Becton Dickinson) supplemented with 60 nM Gramicidin (Sigma Corporation. Cat# G5002). 1 μl of various concentrations of a Cholesterol/Cy5-labeled decoy complexed with TFD were added to each well and the effect on bacterial growth of clinical isolates of S. aureus that had been determined to be methicillin-resistant strains (MRSA) was monitored. Growth was monitored by measuring absorbance of the broth at time intervals during incubation. The plates were incubated at 37° C. with shaking and absorbance readings (at 450 nM) were taken using a plate reader.

S. aureus ATCC 6538NA = experiment: Fur TFD growth assay in non-iron-limiting and iron-limiting media; type: cell-based, Staphylococcus aureus; details: 1 nM TFD; DOTAP, 60 nM gramicidin
Description: S. aureus ATCC 6538NA cultures were grown and maintained in BHI media (Becton Dickenson). Frozen stocks were prepared by mixing equal volumes of a culture in early exponential growth (OD of 0.3 at A600) with 50% glycerol and freezing at −80° C. BHI was the media used for non-iron limiting conditions and NRPMI, which had been prepared as previously described (Skaar et al. 2004), for iron-limiting growth conditions.
A stock solution of gramicidin (Sigma) was freshly prepared by dissolving 21 mg in 1 ml methanol, diluted prior to use in water and further diluting 1/100 in growth medium to give a final concentration of 60 nM. Supplemented media was inoculated 1/100 with the frozen S. aureus stock and incubated at room temperature for 10 min. TFD-DOTAP complexes were formed by mixing 1 ug of TFD with 2 μg of DOTAP (Roche) and incubating at room temperature for 10 min on the bench. The TFD complex was then mixed with inoculated medium, aliquoted into 96 well flat-bottomed plates and growth was analysed by culturing at 37° C. with shaking in a BioTek plate reader.
To achieve transfection, TFDs were mixed with the commercially available lipid preparation DOTAP to form a stable complex and shield the negative charge of the phosphate backbone. The TFD-DOTAP complex was then mixed with S. aureus in BHI, a non-iron limiting medium, which had been supplemented with 60 nM gramicidin. […]

[4] = tested on: clinically-isolated MRSA strain MRSA-5; experiment: Dumbbell Sig TFD growth assay on a clinically-isolated MRSA strain; type: cell-based, Staphylococcus aureus; details: 10 nM TFD, dumbbell configuration
Description: A growth assay was performed as described in Example 5.1 using the Sig TFD in its dumbbell configuration and a clinically-isolated MRSA strain.

S. aureus = experiment: Quantification of TFD number by real-time qPCR; type: cell-based, Staphylococcus aureus; details: in the presence of the transfection reagents; BHI
Description: Cells from individual wells were washed twice in PBS (phosphate buffered saline) and resuspended in 100 μl water. 1 μl of each sample was used in each qPCR reaction, mixing DNA standards or samples with primers to either amplify the TFD (Tef and Ter; SEQ ID NOs 1 & 2) or 16S rRNA (stypF, 5′-ACGGTCTTGCTGTCACTTATA-3′ (SEQ ID NO: 36); stypR, 5′-TACACATATGTTCTTCCCTAATAA-3′ (SEQ ID NO: 37)) in 12.5 ul of SYBR Green DNA mix supplemented with 0.5 μl of ROX (Invitrogen). The resultant data was used to calculate the number of TFDs present per genome.

EMRSA15 = experiment: Lag-time growth assay with antibiotics on EMRSA15; type: cell-based, Staphylococcus aureus; details: 10 nM TFD
Description: Sig dumbbell TFD was prepared as described in Example 9.1 (see below). A growth assay was carried out as described in Example 5.2 with a well-characterised MRSA strain, EMRSA15.
For the cultures treated with the Sig TFD, the lag-time is the delay in growth compared to that seen with the Control TFD in the presence of antibiotic.
Lagtime is defined as the time that growth is delayed (in comparison to a mock-transfected culture) due to treatment of the TFD.

B1: Control TFD: unrelated sequence of similar nucleotide composition that does not occur in the S. aureus genome, SEQ ID NOs: 34 & 35 (nucleic acid, listed as Mycobacterium smegmatis)
chain 1: TGGCCACGGATCCGGGTGACTGCGGGTCCGTA
chain 2: ACGGACCCGCAGTCACCCGGATCCGTGGCCAA
modifications: further chemistry not given here
K. pneumoniae [1]
  inhibition of growth of K. pneumoniae culture: no inhibition was seen
K. pneumoniae [2]
  effect on K. pneumoniae cell growth in vitro: no effect on cell growth
[3]
  effect on growth of MRSA strains in BHI medium: no effect on bacterial growth
S. aureus ATCC 6538NA
  growth of S. aureus in BHI, non-iron limiting medium: reduction of the S. aureus growth rate
[4]
  inhibition of cell growth of clinically-isolated MRSA strain: could not
S. aureus
  number of TFDs detected per genome: 5340 TFDs per genome
EMRSA15; Ciprofloxacin 0.5 mg/L (text: 0.5 mg/ml)
  Lagtime: 0.3 h
EMRSA15; Erythromycin 0.5 mg/L (text: 0.5 mg/ml)
  Lagtime: -0.3 h
EMRSA15; Methicillin 2 mg/L (text: 2 mg/ml)
  Lagtime: 0.2 h

Source: patent publication US20180265915A1, “TRANSCRIPTION FACTOR DECOYS” (priority 2008, published 2018)
